Measured values reported in US20110070615A1 (published 2011).

B1: L19H19 (Fab, V domains shown)
VH: QVQLVESGPGLVKPSGTLSLTCAVSGGSISSSNWWSWVRQPPGKGLEWIGEIYHSGSTNYNPSLKSRVTISVDKSKNQFSLKLSSVTAADTAVYYCARDSSGFYGMDVWGQGTTVTVSS
VL: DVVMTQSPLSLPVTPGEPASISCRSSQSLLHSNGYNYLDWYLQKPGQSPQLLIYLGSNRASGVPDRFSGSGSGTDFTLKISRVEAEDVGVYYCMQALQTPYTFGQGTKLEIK
B2: L20H20 (Fab, V domains shown)
VH: QVQLQESGPGLVKPSGTLSLTCAVSGGSISSSNWWSWVRQPPGKGLEWIGEIYHSGSTNYNPSLKSRVTISVDKSKNQFSLKLSSVTAADTAVYYCARSSSWYWNAFDIWGQGTMVTVSS
VL: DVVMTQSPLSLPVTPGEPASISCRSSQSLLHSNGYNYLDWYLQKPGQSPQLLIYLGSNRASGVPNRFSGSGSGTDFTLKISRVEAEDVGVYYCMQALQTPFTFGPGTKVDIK
B3: L16H16 (Fab, V domains shown)
VH: QVQLQESGPGLVKPSGTLSLTCAVSGGSISSSNWWSWVRQPPGKGLEWIGEIYHSGSTNYNPSLKSRVTISVDKSKNQFSLKLSSVTAADTAVYYCARWTGRTDAFDIWGQGTMVTVSS
VL: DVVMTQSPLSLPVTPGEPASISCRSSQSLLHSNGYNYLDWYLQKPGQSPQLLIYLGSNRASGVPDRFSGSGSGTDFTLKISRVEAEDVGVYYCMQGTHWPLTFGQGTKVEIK
B4: L18H18 (Fab, V domains shown)
VH: QVQLVESGGGVVRPGGSLRLSCAASGFTFSSYAMSWVRQAPGKGLEWVSTISGSGGSTYYADSVKGRFTISRDNSKNTLYLQMNSLRAEDTAVYYCAKERGSGWSLDNMDVWGQGTTVTVSS
VL: DIQLTQSPSSVSASVGDRVTITCRASQGISRWLAWYQQKPGKAPRLLIYAASGLQSGVPSRFSGSGSGTDFTLTISNLQPEDFATYYCQQASSFPITFGQGTRLETK

target: T1, hu IGF-1R(ECD)-C3-muIgG1Fc (human; mouse, Glycosylated. About 60% of the preparation is cleaved at RKRR (chain pos 708-711) into disulfide-linked alpha and beta chains, 40% is uncleaved. Dimer through receptor and Fc disulfides.); assay: phage Fab ELISA, IGF-1R-C3-mFc coated at 5 µg/ml, anti-M13-HRP
T1 construct: 60% of the purified protein was processed into α and β chains, 40% unprocessed; also called IGF-1R(ECD)-C3-muFc; IGF-1R-C3-muFc
Protocol: In 96-well 2-ml deep-well blocks, 480 μl/well 2×YT-CG broth was inoculated with 20 μl of overnight cultures of the individual clones, then incubated at 37° C., 300 rpm for 3 hours. To each well, 50 μl of 1:3 diluted M13KO7 helper phage were added to infect the cells. The block was incubated at 37° C. without shaking for 30 minutes, and then shaken gently for another 30 minutes at 150 rpm. The block was centrifuged at 3600 rpm for 20 minutes to pellet the infected cells. The cell pellet in each well was suspended into 480 μl of 2×YT-CK (2×YT broth containing 100 μg/ml carbenicillin and 40 μg/ml kanamycin), and incubated at 30° C. overnight for about 20 hours. The cell debris was separated by centrifugation at 3600 rpm for 20 minutes. The rescued phage supernatant was used in the phage ELISA to check for IGF-1R-specific, INSR-cross reactive, or mouse Fc binding of individual clones.
Three sets of Nunc MaxiSorb Immunoplates were coated with 100 μ/well of IGF-1R-C3-mFc at 5 μg/ml, INSR-mFc at 5 μg/ml, or mouse IgG1 (catalog #010-0103, Rockland, Gilbertsville, Pa.) at 2 μg/ml in PBS, respectively, at 4° C. overnight. The coated plates were washed 3× with […] of PBS. The washed plates were blocked with 300 μl/well 2% MPBS at room temperature for one hour. Meanwhile, rescued phages of individual clones were pre-blocked by mixing 170 μof rescued phage with 170 μl of 4% MPBS. The blocked plates were washed 5× with 300 μl/well TBST (TBS: 10 mM Tris-HCl, pH 7.5, 1 mM EDTA, 150 mM NaCl; Tween-20. 0.1%). 100 μl/well of pre-blocked phage dilutions were distributed to each set of coated plate, which were incubated at room temperature on a rocker for 90 minutes. The plates were washed 5× with 300 μl/well TBST. 100 μl/well of anti-M13-HRP in 2% MPBS (1:3000 dilution, catalog number 27-9421-01, Amersham Pharmacia Biotech) were distributed, and plates were incubated at room temperature on rocker for one hour. The plates were washed 5× with 300 μl/well TBST. 100 μl/well of the substrate 1-Step™ ABTS (Pierce Biotechnology, Rockford, Ill., catalog number 37615) were added. Plates were incubated for one hour. OD₄₀₅ was measured for signal detection.

Binding result, binds:
B1
B2
B3
B4
